# B1: FGF19 variant M70 (ligand)
# chain: MRDSSPLVHYGWGDPIRLRHLYTSGPHGLSSCFLRIRADGVVDCARGQSAHSLLEIKAVALRTVAIKGVHSVRYLCMGADGKMQGLLQYSEEDCAFEEEIRPDGYNVYRSEKHRLPVSLSSAKQRQLYKNRGFLPLSHFLPMLPMVPEEPEDLRGHLESDMFSSPLETDSMDPFGLVTGLEAVRSPSFEK
# Target: mouse FGFR4/β-klotho complex co-expressed in rat L6 myoblast cells (mouse, UniProt Q03142 17-799; Q99N32 1-1043)
# Test: cell-based or functional assay
# Sequence of mouse FGFR4/β-klotho complex co-expressed in rat L6 myoblast cells (Q03142 17-799, chain 1 of 2): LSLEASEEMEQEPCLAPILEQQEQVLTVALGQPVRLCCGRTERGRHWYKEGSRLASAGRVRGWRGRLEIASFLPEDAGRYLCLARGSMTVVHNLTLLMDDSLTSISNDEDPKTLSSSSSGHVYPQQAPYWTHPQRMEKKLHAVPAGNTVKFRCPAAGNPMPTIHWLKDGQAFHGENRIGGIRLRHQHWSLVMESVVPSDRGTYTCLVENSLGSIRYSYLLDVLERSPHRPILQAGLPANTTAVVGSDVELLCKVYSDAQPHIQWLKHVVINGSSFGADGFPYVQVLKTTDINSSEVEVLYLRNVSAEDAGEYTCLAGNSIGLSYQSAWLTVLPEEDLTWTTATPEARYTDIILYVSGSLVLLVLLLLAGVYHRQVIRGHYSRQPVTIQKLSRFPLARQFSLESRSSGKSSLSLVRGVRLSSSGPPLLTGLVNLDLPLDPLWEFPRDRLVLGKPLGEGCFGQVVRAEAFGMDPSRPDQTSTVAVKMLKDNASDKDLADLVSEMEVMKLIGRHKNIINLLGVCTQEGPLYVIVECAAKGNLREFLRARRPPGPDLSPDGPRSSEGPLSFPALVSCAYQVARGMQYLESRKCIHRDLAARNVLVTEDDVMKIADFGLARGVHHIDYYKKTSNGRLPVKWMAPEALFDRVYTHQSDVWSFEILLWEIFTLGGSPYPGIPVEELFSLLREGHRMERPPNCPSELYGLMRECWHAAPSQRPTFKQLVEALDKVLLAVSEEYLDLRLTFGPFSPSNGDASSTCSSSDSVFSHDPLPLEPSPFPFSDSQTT
# Sequence of mouse FGFR4/β-klotho complex co-expressed in rat L6 myoblast cells (Q99N32 whole entry, chain 2 of 2): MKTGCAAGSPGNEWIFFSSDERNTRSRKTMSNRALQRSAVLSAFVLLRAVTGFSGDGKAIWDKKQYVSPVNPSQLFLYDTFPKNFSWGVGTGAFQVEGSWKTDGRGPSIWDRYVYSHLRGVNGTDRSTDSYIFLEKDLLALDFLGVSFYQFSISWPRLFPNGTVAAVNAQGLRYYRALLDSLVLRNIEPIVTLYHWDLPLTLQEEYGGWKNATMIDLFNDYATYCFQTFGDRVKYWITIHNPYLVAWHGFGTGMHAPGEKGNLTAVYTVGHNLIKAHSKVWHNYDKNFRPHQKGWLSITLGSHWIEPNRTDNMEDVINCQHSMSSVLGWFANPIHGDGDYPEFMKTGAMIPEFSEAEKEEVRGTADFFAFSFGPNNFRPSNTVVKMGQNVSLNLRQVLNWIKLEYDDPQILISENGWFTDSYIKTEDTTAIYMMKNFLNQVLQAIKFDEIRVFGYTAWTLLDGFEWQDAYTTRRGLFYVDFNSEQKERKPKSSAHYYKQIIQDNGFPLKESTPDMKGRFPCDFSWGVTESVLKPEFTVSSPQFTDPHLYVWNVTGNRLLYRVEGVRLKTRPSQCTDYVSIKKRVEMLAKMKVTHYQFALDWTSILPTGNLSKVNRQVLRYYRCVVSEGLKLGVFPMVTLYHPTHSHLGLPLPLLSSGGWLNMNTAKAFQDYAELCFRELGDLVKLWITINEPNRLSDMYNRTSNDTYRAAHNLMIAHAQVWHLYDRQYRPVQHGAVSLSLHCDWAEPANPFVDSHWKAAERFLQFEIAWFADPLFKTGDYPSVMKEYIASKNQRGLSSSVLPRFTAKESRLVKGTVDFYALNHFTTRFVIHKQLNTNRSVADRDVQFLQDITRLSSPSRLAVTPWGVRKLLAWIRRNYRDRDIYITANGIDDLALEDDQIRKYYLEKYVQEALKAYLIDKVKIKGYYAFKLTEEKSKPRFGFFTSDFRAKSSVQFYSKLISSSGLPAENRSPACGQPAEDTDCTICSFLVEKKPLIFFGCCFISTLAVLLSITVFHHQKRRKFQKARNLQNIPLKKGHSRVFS
binder,measurement,value
B1,"EC50 (pM), ELK luciferase assay in L6 cells",38.3 pM
same,"Emax (fold potentiation), ELK luciferase assay in L6 cells",1.85 fold potentiation

# — patent US20190307847A1 (NGM BIOPHARMACEUTICALS, published 2019)
